Experimental data published in patent US20100015637A1 (AbbVie / Abbott, published 2010).

Key:
[1] = biological target: human PlGF-1 comprising amino acids 1-137 produced in human embryonic kidney cells (human) (UniProt P49763); assay: Format 3 Quantikine ELISA, capture MAb264, detection Pb264; sFlt-1 307 pmol/L (ratio 10)
[2] = biological target: human PlGF-1 comprising amino acids 1-137 produced in human embryonic kidney cells (human) (UniProt P49763); assay: Format 1 …, capture 2-826-335, detection 1-255-713; sFlt-1 9200 pmol/L (ratio 300)
[3] = biological target: human PlGF-1 comprising amino acids 1-137 produced in human embryonic kidney cells (human) (UniProt P49763); assay: Format 1 …, capture 2-826-335, detection 1-255-713; sFlt-1 3067 pmol/L (ratio 100)
[4] = biological target: human PlGF-1 comprising amino acids 1-137 produced in human embryonic kidney cells (human) (UniProt P49763); assay: Format 2 …, capture MAb264, detection Pb264; sFlt-1 920 pmol/L (ratio 30)
[5] = biological target: human PlGF-1 comprising amino acids 1-137 produced in human embryonic kidney cells (human) (UniProt P49763); assay: Format 2 …, capture MAb264, detection Pb264; sFlt-1 0 pmol/L (ratio 0)
[6] = biological target: human PlGF-1 comprising amino acids 1-137 produced in human embryonic kidney cells (human) (UniProt P49763); assay: Format 3 Quantikine ELISA, capture MAb264, detection Pb264; sFlt-1 0 pmol/L (ratio 0)
[7] = biological target: human PlGF-1 comprising amino acids 1-137 produced in human embryonic kidney cells (human) (UniProt P49763); assay: Format 2 …, capture MAb264, detection Pb264; sFlt-1 153 pmol/L (ratio 5)
[8] = biological target: human PlGF-1 comprising amino acids 1-137 produced in human embryonic kidney cells (human) (UniProt P49763); assay: Format 2 …, capture MAb264, detection Pb264; sFlt-1 3067 pmol/L (ratio 100)
[9] = biological target: T1, human PlGF-1 comprising amino acids 1-137 produced in human embryonic kidney cells (human, UniProt P49763 19-221); assay: … sandwich, capture MAb255, detection pAb264; antigen 250 pg/mL
T1 construct: Mature human PlGF-1 with 6xHis tag; also called HEK (1-137); full length HEK human PlGF-1 (1-137)
T1 sequence: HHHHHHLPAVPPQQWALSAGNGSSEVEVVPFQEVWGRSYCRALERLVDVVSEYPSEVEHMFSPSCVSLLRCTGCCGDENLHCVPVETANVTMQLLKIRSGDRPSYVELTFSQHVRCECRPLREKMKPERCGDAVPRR

[10] = biological target: T2, CHO human PlGF-1 fragment (comprising amino acids 17-131; ATCC PTA-8540) (human, UniProt P49763 35-221); assay: as above
T2 sequence: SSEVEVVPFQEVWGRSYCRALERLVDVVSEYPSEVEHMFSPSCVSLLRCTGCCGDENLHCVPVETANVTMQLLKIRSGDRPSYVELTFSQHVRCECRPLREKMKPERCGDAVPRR

[11] = biological target: T3, human PlGF-1 fragment (comprising amino acids 17-131) produced in human embryonic kidney cells (human, UniProt P49763 35-221); assay: … sandwich, capture MAb255, detection pAb264; antigen 15 pg/mL
T3 sequence: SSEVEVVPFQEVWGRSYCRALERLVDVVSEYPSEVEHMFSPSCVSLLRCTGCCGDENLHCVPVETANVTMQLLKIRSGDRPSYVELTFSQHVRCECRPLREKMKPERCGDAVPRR

[12] = biological target: T1, human PlGF-1 comprising amino acids …; assay: as above
[13] = biological target: T4, CHO human PlGF-1 comprising amino acids 1-137 (human PlGF-1-His (1-131), CHO 6305) (human, UniProt P49763 19-221, N-glycans at N21 (completely glycosylated) and N89 (partially glycosylated)); assay: as above
T4 construct: Mature human PlGF-1 with 6xHis tag (137 amino acids); also called CHO (1-137)
T4 sequence: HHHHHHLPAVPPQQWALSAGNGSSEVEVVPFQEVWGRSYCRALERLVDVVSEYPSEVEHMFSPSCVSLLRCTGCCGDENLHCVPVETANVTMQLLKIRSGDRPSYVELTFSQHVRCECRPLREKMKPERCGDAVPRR

[14] = biological target: T2, CHO human PlGF-1 fragment (comprising …); assay: as above
[15] = biological target: recombinant human PlGF-1 (comprising amino acids 1-131) expressed in E. coli (R&D Systems) (human) (UniProt P49763); assay: … sandwich, capture MAb255, detection pAb264; antigen 250 pg/mL
[16] = biological target: recombinant human PlGF-1 (comprising amino acids 1-131) expressed in E. coli (R&D Systems) (human) (UniProt P49763); assay: … sandwich, capture MAb255, detection MAb826; antigen 0 pg/mL (blank)
[17] = biological target: recombinant human PlGF-1 (comprising amino acids 1-131) expressed in E. coli (R&D Systems) (human) (UniProt P49763); assay: … sandwich, capture MAb255, detection MAb826; antigen 750 pg/mL
[18] = biological target: recombinant human PlGF-1 (comprising amino acids 1-131) expressed in E. coli (R&D Systems) (human) (UniProt P49763); assay: … sandwich, capture MAb255, detection MAb826; antigen 60 pg/mL
[19] = biological target: recombinant human PlGF-1 (comprising amino acids 1-131) expressed in E. coli (R&D Systems) (human) (UniProt P49763); assay: … sandwich, capture MAb826, detection pAb264; antigen 750 pg/mL
[20] = biological target: recombinant human PlGF-1 (comprising amino acids 1-131) expressed in E. coli (R&D Systems) (human) (UniProt P49763); assay: … sandwich, capture MAb826, detection pAb264; antigen 250 pg/mL
[21] = biological target: recombinant human PlGF-1 (comprising amino acids 1-131) expressed in E. coli (R&D Systems) (human) (UniProt P49763); assay: … sandwich, capture MAb826, detection pAb264; antigen 15 pg/mL

native sFlt-1, isolated from human placental tissue (from UniProt P17948 27-687) (receptor)
% Inhibition [1]: 32.6%
PlGF-1 Measured [1]: 583 pg/mL
% Inhibition [2]: 95.9%
PlGF-1 Measured [2]: 42.1 pg/mL
% Inhibition [3]: 94.1%
PlGF-1 Measured [3]: 60.3 pg/mL
% Inhibition [4]: 91.3%
PlGF-1 Measured [4]: 68.2 pg/mL
% Inhibition [5]: 0%
PlGF-1 Measured [5]: 786 pg/mL
% Inhibition [6]: 0%
PlGF-1 Measured [6]: 865 pg/mL
% Inhibition [7]: 64.9%
PlGF-1 Measured [7]: 276 pg/mL
% Inhibition [8]: 95.7%
PlGF-1 Measured [8]: 33.8 pg/mL

B1: monoclonal antibody 1-255-713 (produced by murine hybridoma cell line 1-255-713, ATCC PTA-8536) (antibody, mouse IgG2a, V domains shown)
VH: QVHLQQSGAELMKPGASVKISCKATGYTFSSYWIEWVKQRPGHGLEWIGEILPGSVSNNFNEKFKDKATLTADPSSNTAYIQVSSLTSEDSAVYYCARSTGFYYGGNYFDHWGQGTTLAVSS
VL: DVVMTQTPLSLPVSPGDQASISCRSSQSLVHSNGHTYLHWYLQKPGQSPKLLIYKVSNRFSGVPDRVSGSGSGTDFTLKISRVEAEDLGVYFCSQSTHVPPTFGGGTKLEIKR
notes: also called MAb255
RLU [9]: 559000 RLU
RLU [10]: 283000 RLU
RLU [11]: 32900 RLU
RLU [12]: 46700 RLU
RLU [13]: 26400 RLU
RLU [14]: 28700 RLU
RLU [15]: 543000 RLU
RLU [16]: 6110 RLU
RLU [17]: 780000 RLU
RLU [18]: 83200 RLU

B2: monoclonal antibody 2-826-335 (produced by murine hybridoma cell line 2-826-335, ATCC PTA-8539) (antibody, mouse IgG1, V domains shown)
VH: QVQLKQSGPGLVQPSQSLSITCTVSGFSLTTYGIHWVRQSPGKGLEWLGVMWSGGDTDYDAAFISRLSISKDNSKSQVFFKMNSLQANDTGIYYCARYRFYGMDYWGQGTSVTVSS
VL: AIQMTQSSSSFSVSLGDRVTITCKASEDIYNRFAWYQQKPGNAPRLLISGAASLEAGVPSRFSGSGSGQDYTLSITSLQTEDVATYYCQQYWSTPWTFGGGTKLEIKR
notes: also called MAb826
RLU [19]: 606000 RLU
RLU [20]: 231000 RLU
RLU [21]: 19600 RLU
